{"source": "patent US20120214748A1", "about": "(published 2012)", "binders": {"B1": {"name": "M2-4G (peptide)", "peptide": "GICSRSLPPICIPD", "modifications": "disulfide 3-11 (inferred)", "notes": "Synthetic consensus peptide of the non-selective group, linear form; also called \"NS\" peptide; non-selective peptide"}, "B2": {"name": "Schistocerca Gregaria Chymotrypsin Inhibitor (SGCI) (other, UniProt O46162 57-91, looked up)", "chain": "EVTCEPGTTFKDKCNTCRCGSDGKSAACTLKACPQ"}, "B3": {"name": "M2-4G cyclic (peptide)", "peptide": "cyclo(GICSRSLPPICIPD)", "modifications": "disulfide 3-11 (inferred)", "notes": "Backbone-cyclised form of M2-4G"}, "B4": {"name": "M1-3E-Y12W (peptide)", "peptide": "GVCSRSLPPICWPD", "modifications": "disulfide 3-11 (inferred)", "notes": "The parent M1-3E was not tested as a synthetic peptide"}, "B5": {"name": "M2-6E-Y2M (peptide)", "peptide": "GMCSRSYPPVCIPD", "modifications": "disulfide 3-11 (inferred)", "notes": "Point mutant of M2-6E"}, "B6": {"name": "M2-6E-Y2W (peptide)", "peptide": "GWCSRSYPPVCIPD", "modifications": "disulfide 3-11 (inferred)", "notes": "Point mutant of M2-6E"}, "B7": {"name": "M2-6E-Y7I (peptide)", "peptide": "GYCSRSIPPVCIPD", "modifications": "disulfide 3-11 (inferred)", "notes": "Point mutant of M2-6E"}}, "note": "Bridge positions count the residues as written; N and C are the ends. Ends that are not written are not given here.", "data": [{"target": "Thrombin", "assay": "enzyme inhibition, Z-Gly-Pro-Arg-pNa substrate, tight-binding fit", "units": {"Ki": "nM"}, "values": [{"binder": "B1", "Ki": 10000}]}, {"target": "T1, MASP-2 CCP1-CCP2-SP (human, UniProt O00187 298-686, limits assumed)", "T1 construct": "domain: CCP1-CCP2-SP; Recombinant fragment", "T1 sequence (O00187 298-686 limits assumed)": "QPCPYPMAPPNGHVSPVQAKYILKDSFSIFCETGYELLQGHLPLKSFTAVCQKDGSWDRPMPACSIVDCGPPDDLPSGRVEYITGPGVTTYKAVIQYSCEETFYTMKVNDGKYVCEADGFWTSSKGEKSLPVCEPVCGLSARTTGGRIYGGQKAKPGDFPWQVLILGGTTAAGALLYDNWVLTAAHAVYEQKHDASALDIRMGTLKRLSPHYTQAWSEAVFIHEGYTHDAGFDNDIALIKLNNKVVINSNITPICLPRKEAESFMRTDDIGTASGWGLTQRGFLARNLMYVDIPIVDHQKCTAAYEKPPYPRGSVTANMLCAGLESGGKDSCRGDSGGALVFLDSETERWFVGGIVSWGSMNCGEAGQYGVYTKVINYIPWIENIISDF", "assay": "preliminary experiments, method not described", "values": [{"binder": "B2", "binding result": "no binding"}]}, {"target": "T2, MASP-1 CCP1-CCP2-SP (human, UniProt P48740 298-699, limits assumed)", "T2 construct": "domain: CCP1-CCP2-SP; Recombinant fragment", "T2 sequence (looked up)": "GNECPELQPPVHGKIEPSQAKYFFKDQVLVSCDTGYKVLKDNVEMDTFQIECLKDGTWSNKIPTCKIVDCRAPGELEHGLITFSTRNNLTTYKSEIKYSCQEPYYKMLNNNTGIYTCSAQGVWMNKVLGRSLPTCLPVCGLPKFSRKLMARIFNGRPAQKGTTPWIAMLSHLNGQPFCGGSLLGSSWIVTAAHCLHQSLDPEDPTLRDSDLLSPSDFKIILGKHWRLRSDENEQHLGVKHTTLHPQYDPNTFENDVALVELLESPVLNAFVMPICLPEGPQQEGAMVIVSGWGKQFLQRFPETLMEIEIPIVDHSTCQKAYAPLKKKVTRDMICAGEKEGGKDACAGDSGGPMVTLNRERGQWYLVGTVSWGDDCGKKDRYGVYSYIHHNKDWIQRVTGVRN", "assay": "preliminary experiments, method not described", "values": [{"binder": "B2", "binding result": "no binding"}]}, {"target": "Trypsin", "sequence (P00760 24-246)": "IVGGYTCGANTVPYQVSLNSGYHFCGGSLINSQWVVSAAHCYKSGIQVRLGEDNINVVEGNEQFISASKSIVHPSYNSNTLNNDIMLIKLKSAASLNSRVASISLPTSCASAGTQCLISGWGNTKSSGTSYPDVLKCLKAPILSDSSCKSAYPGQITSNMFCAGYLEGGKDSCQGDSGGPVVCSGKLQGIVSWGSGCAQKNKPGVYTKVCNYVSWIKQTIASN", "assay": "enzyme inhibition, Z-L-Lys-SBzl substrate, tight-binding fit", "units": {"Ki": "nM"}, "values": [{"binder": "B3", "Ki": 350}, {"binder": "B1", "Ki": 260}, {"binder": "B4", "Ki": 170}, {"binder": "B5", "Ki": 4000}, {"binder": "B6", "Ki": 1700}, {"binder": "B7", "Ki": 160}]}, {"target": "T1, MASP-2 CCP1-CCP2-SP", "assay": "enzyme inhibition, Z-L-Lys-SBzl substrate, tight-binding fit", "units": {"Ki": "nM"}, "values": [{"binder": "B3", "Ki": 750}, {"binder": "B1", "Ki": 1030}, {"binder": "B4", "Ki": 5000}, {"binder": "B5", "Ki": 1500}, {"binder": "B6", "Ki": 580}, {"binder": "B7", "Ki": 7000}]}, {"target": "T2, MASP-1 CCP1-CCP2-SP", "assay": "enzyme inhibition, Z-L-Lys-SBzl substrate, tight-binding fit", "units": {"Ki": "nM"}, "values": [{"binder": "B3", "Ki": 275}, {"binder": "B1", "Ki": 65}, {"binder": "B4", "Ki": 140}, {"binder": "B5", "Ki": 4000}]}]}
